Consider 15 sequences from the DeepSol protein solubility set.

This data set can be described thus: soluble on expression in E. coli; label from the status in PepcDB or PDB records.
Take “GSACELPECQEDAGNKVCSLQCNNHACGWDGGDCSLNFNDPWKNCTQSLQCWKYFSDGHCDSQCNSAGCLFDGFDCQRAEGQCNPLYDQYCKDHFSDGHCDQGCNSAECEWDGLDCAEHVPERLAAGTLVVVVLMPPEQLRNSSFHFLRELSRVLHTNVVFKRDAHGQQMIFPYYGDVRGSIVYLEIDNRQCVQASSQCFQSATDVAAFLGALASLGSLNIPYKIEAVQSETVEPANSHHHHHH”: the “soluble on expression in E. coli” value was “soluble”.

For “MMKTLSSGNCTLSVPAKNSYRMVVLGASRVGKSSIVSRFLNGRFEDQYTPTIEDFHRKVYNIRGDMYQLDILDTSGNHPFPAMRRLSILTGDVFILVFSLDNRESFDEVKRLQKQILEVKSCLKNKTKEAAELPMVICGNKNDHGELCRQVPTTEAELLVSGDENCAYFEVSAKKNTNVDEMFYVLFSMAKLPHEMSPALHRKISVQYGDAFHPRPFCMRRVKEMDAYGMVSPFARRPSVNSDLKYIKAKVLREGQARERDKCTIQLEHHHHHH”, the “soluble on expression in E. coli” value is “soluble”. On to “MATIRKADYYYGALLSALVNGGLAPALFEKENDNRQIYEVTTNKASYIMYTKYNTNPSGSKDFTWSFVFSDHEIAEINKIYLEHSKEKEIMFAFVCAQKQPSDSNQVIAIVRWNEFLECVDLQRQQVRGTPRLSIKAVKGSPKLRLYGSKRADVLDGKDHTIKIERNRLNSL”, for which the “soluble on expression in E. coli” value is given as “not soluble”. On to “ARYLDVTSRRDPEHSHRTYYVTGQVFFASADRFTASFDLREKVETLAIDLREAHFWDITAVAALDKVVLKLRRAGISVDVVGMNRATATLVDRFGVHDKPDGIDSLMGH”, for which the “soluble on expression in E. coli” value is given as “not soluble”.

As for “MNLPKKVRLVEVGPRDGLQNEKQPIEVADKIRLVDDLSAAGLDYIEVGSFVSPKWVPQMAGSAEVFAGIRQRPGVTYAALAPNLKGFEAALESGVKEVAVFAAASEAFSQRNINCSIKDSLERFVPVLEAARQHQVRVRGYISCVLGCPYDGDVDPRQVAWVARELQQMGCYEVSLGDTIGVGTAGATRRLIEAVASEVPRERLAGHFHDTYGQALANIYASLLEGIAVFDSSVAGLGGCPYAKGATGNVASEDVLYLLNGLEIHTGVDMHALVDAGQRICAVLGKSNGSRAAKALLAKA”, the “soluble on expression in E. coli” value is on record as “soluble”. In the case of “SLNIKDEHIDSVCSLLDQLVGNVSFKNLFTGYGLFHKEETMFAIWQNKKLYLRGEGVLAIQLTKLGCEPFTTNELNKRFVLSQYYALSDQILRSNRLCRKLIILSIKQILEQKLECTLRKLNRLKDLPNLTIKHERALIKVGITNVAMLREIGAENALVELKKSGSGATLDFYWKLVCALQNKNSQMLSQAEKERLLKKLNEVWRKNGLKGYRKLDDE”, the “soluble on expression in E. coli” value is recorded as “not soluble”. Consider “MGSDKIHHHHHHMNSVVNFRDIGGFPTQQGTVVKTGYFFRSGELVNVAQADQQKLVEDYQIKRIYDFRSAAETQERPDDSIQGTNYLHIDILADIQAQTASLEGMLKTVGSPDEAMDMAYKEMVLSNSGRKGYQTFFENFLSYPQEAILFHCFAGKDRTGIGAALILSALGVEHSYILEDYLKTNEQRKTANEQIIAQYQANGTPLAEIQQLETLLYVKKEYLATALQAIEKEFGSVEGYLKEGLGLPLSAKKDMLSLYTKS”, for which the “soluble on expression in E. coli” value is “not soluble”. For “MGHHHHHHSHMDNCLAAAALNGVDRRSLQRSARLALEVLERAKRRAVDWHALERPKGCMGVLAREAPHLEKQPAAGPQRVLPGEREERPPTLSASFRTMAEFMDYTSSQCGKYYSSVPEEGGATHVYRYHRGESKLHMCLDIGNGQRKDRKKTSLGPGGSYQISEHAPEASQPAENISKDLYIEVYPGTYSVTVGSNDLTKKTHVVAVDSGQSVDLVFPV” the value was “not soluble”; for “MGSDKIHHHHHHMKINTSMLWEDKAKSEVTYTTYLIEKTPDIKNKNPRPAVIICGGGGFFKVTDREKEPVALYFLNKGFQAITLDYTVGKGSGYPKPLYDLAKMLLIVRENAQNWNIDTEKVIFIGFSAGATHSASLANSWNEPFLQKYFDYPGETLKPSLVILSYPLLDFNYQYEQVSVDPDNQMPTKLSPMPKIDFLTGALKTVVGKELTTENLKEYSPIEHISTATVPTFIWGMQDDDCIYNNALLEYAKRLKDNGILYELHMFALGEHGLSVINSNTQAKFSDYEELGIWKKLCIQFINRVLHLK”, “not soluble”. Take “MGHHHHHHSHTQDKNYEDELTQVALALVEDVINYAVKIVEEERNPLKNIKWMTHGEFTVEKGLKQIDEYFSKCVSKKCWAHGVEFVERKDLIHSFLYIYYVHWSISTADLPVARISAGTYFTMKVSKTKPPDAPIVVSYVGDHQALVHRPGMVRFRENWQKNLTDAKYSFMESFPFLFNRV”: the “soluble on expression in E. coli” value is listed as “not soluble”. For “MHHHHHHSSGVDLGTENLYFQSMVKPAGPTVEQQGEMARSGGRMLATLEPEQRAEIIHHLADLLTDQRDEILLANKKDLEEAEGRLAAPLLKRLSLSTSKLNSLAIGLRQIAASSQDSVGRVLRRTRIAKNLELEQVTVPIGVLLVIFESRPDCLPQVAALAIASGNGLLLKGGKEAAHSNRILHLLTQEALSIHGVKEAVQLVNTREEVEDLCRLDKMIDLIIPRGSSQLVRDIQKAAKGIPVMGHSEGICHMYVDSEASVDKVTRLVRDSKCEYPAACNALETLLIHRDLLRTPLFDQIIDMLRVEQVKIHAGPKFASYLTFSPSEVKSLRTEYGDLELCIEVVDNVQDAIDHIHKYGSSHTDVIVTEDENTAEFFLQHVDSACVFWNASTRFSDGYRFGLGAEVGISTSRIHARGPVGLEGLLTTKWLLRGKDHVVSDFSEHGSLKYLHENLPIPQRNTN”, the “soluble on expression in E. coli” value is “soluble”. Take “MRGHLIDGDGRCIHYHGPFDVVGNKCATCNEWWACHRCHEEIANHPFGKMLIDAPSSLQCGHCGELMAYGVQKCPRCGHNFNPGCSLHTPLYYEMPSLEHHHHHH”: the “soluble on expression in E. coli” value is reported as “not soluble”.

Regarding “MGSDKIHHHHHHMKPIKEIADQLELKDDILYPYGHYIAKIDHRFLKSLENHEDGKLILVTAVTPTPAGEGKTTTSIGLSMSLNRIGKKSIVTLREPSLGPTLGLKGGATGGGRSRVLPSDEINLHFTGDMHAVASAHNLLAAVLDSHIKHGNELKIDITRVFWKRTMDMNDRALRSIVIGLGGSANGFPREDSFIITAASEVMAILALSENMKDLKERLGKIIVALDADRKIVRISDLGIQGAMAVLLKDAINPNLVQTTEGTPALIHCGPFANIAHGTNSIIATKMAMKLSEYTVTEAGFGADLGAEKFIDFVSRVGGFYPNAAVLVATVRALKYHGGANLKNIHEENLEALKEGFKNLRVHVENLRKFNLPVVVALNRFSTDTEKEIAYVVKECEKLGVRVAVSEVFKKGSEGGVELAKAVAEAAKDVEPAYLYEMNDPVEKKIEILAKEIYRAGRVEFSDTAKNALKFIKKHGFDELPVIVAKTPKSISHDPSLRGAPEGYTFVVSDLFVSAGAGFVVALSGDINLMPGLPKKPNALNMDVDDSGNIVGVS”, the “soluble on expression in E. coli” value was “not soluble”. In the case of “MGSDKIHHHHHHMSNLLEVNSLNVQFNYDETTVQAVKNVSFELRKKHILGIVGESGSGKSITAKSILGLLPDYPDHTLTGEIIFNGQSLNNLSTSALQQIRGKDISMIFQDPLSSLNPRLTIGKQITEVLFQHKRVSKSEAKSMTINILEKVGIKHATRQFDAYPHELSGGMRQRVMIAMALILKPQILIADEPTTALDASTQNQLLQLMKSLYEYTETSIIFITHDLGAVYQFCDDVIVMKDGSVVESGTVESIFKSPQHTYTKRLIDAIPDIHQTRPPRPLNNDILLKFDRVSVDYTSPSGSLYRAVNDINLAIRKGETLGIVGESGSGKSTLAKTVVGLKEVSEGFIWYNELPLSLFKDDELKSLRQEIQMIFQDPFASINPRFKVIDVIKRPLIIHGKVKDNDDIIKTVVSLLEKVGLDQSFLYRYPHELSGGQRQRVSIARALAVEPKVIVCDEAVSALDVSIQKDIIELLKQLQLDFGITYLFITHDMGVINEICDRVAVMKNGEIVELNNTEDIIKHPQSDYAKQLISEVAVIAK”, the “soluble on expression in E. coli” value is given as “not soluble”. In the case of “MGSDKIHHHHHHMINQVYRLVSERQFEVANVDESLTGDVVVVRPTHLSICAADQRYYTGSRGKEMLSKKLPMALIHEGVGEVVYDATKEFKPGAKVVMIPNTPFENDPVIAENYLRSSKFRSSGYDGLMQDYVFMRRDRVVALPDDINMKVAAFSELISVAVHAILRFEGKSNANRESFGVWGDGNLGFITSLLLKNWYPDSKVYIFGKTPYKLDFFSFVDGAYAIDDVPADLVIDQAFECAGGMGSQYAVSQIIDVIKPEGTISLLGVSEYPIEFNSRMVLEKGLTVYGSSRSGRVDFEKTVEFLSTNKRGVEYLQNLVGEVHTVHSIQDVIEAFEADLRSPWGKSVMEWKI”, the “soluble on expression in E. coli” value is reported as “not soluble”.
